Reference: patent US20150110788A1 (GALAXY BIOTECH, published 2015)
Blank lines part the entries; values can stand above or below the binder they belong to.

Key:
VEGF [1] = target: T1, VEGF (UniProt P15692-4 27-191, limits assumed); assay: bridging ELISA: VEGF captured on heparin-coated plate, antibody, then Flag-FGF2 and HRP-anti-Flag M2; signal needs binding to both VEGF and Flag-FGF2
T1 construct: also called vascular endothelial growth factor; VEGF-A
Protocol: (§1) Heparin (50 μg/ml) was bound to an ELISA plate overnight and used to capture VEGF (0.2 μg/ml) overnight, followed by 2% BSA for blocking. […] In principle, this assay should only detect bispecific antibody, because any detectable antibody must bind both to the VEGF on the plate in order to be captured and to Flag-FGF2 in solution in order to be detected.

FGF2 [2] = target: T2, FGF2 (UniProt P09038 143-288, limits assumed); assay: ELISA binding curves, FIG. 6B
T2 construct: also called basic FGF; basic fibroblast growth factor
T2 sequence (P09038 143-288 limits assumed): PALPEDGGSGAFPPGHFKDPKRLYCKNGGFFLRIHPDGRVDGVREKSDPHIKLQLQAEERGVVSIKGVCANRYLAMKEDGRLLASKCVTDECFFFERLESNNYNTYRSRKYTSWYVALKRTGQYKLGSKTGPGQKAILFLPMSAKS
Protocol: (§2) Heparin (50 μg/ml) was bound to ELISA plates overnight and used to capture either VEGF or FGF2 (0.2 μg/ml) overnight, followed by 2% BSA for blocking.

VEGF [3] = target: T1, VEGF; assay: ELISA: VEGF captured on heparin-coated plate, detected with HRP-goat-anti-human-IgG-Fc
Protocol: as §2

FGF2 [4] = target: T2, FGF2; assay: ELISA: FGF2 captured on heparin-coated plate, detected with HRP-goat-anti-human-IgG-Fc
Protocol: as §2

Flag-FGF2 = target: T3, Flag-FGF2 (UniProt P09038 135-288, limits assumed); assay: bridging ELISA: VEGF captured on heparin-coated plate, antibody, then Flag-FGF2 and HRP-anti-Flag M2; signal needs binding to both VEGF and Flag-FGF2
T3 construct: Soluble detection reagent in the bridging ELISA; also called Flag peptide linked to FGF2; not shown: Flag peptide
T3 sequence (P09038 135-288 limits assumed): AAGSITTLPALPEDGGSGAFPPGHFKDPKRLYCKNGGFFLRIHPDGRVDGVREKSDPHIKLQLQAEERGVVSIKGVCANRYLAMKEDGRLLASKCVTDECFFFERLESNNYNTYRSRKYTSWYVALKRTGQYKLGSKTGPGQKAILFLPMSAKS
Protocol: as §1

T1 sequence (P15692 other isoform, or with tags, fused parts or gaps limits assumed): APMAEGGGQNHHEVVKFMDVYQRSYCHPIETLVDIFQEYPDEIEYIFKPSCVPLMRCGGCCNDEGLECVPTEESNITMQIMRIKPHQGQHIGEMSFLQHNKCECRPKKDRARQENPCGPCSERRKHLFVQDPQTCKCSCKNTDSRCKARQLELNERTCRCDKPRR

binding result (VEGF [1]): no binding (tested: 1 µg/ml)
binding result (FGF2 [2]): binds
B1: HuGAL-F2 (antibody, V domains shown)
VH: EVQLVQSGAEVKKPGSSVKVSCKASGYTFTNYVINWVRQAPGQGLEWIGYNDPYNDVSKYNEKFKGRATITSDKSTSTAYMELSSLRSEDTAVYYCAKEGGGKYVYAMDSWGQGTTVTVSS
VL: DIQMTQSPSSLSASVGDRVTITCKASQSVSSDVGWYQQKPGKAPKLLIYSGSNRYSGVPSRFSGSGSGTDFTLTISSLQPEDFATYYCQQDYYSPWTFGQGTKVEIK
notes: also called humanized GAL-F2

fold difference of EC50 against Avastin® (VEGF [3]): ≤ 2 fold
fold difference of EC50 against HuGAL-F2 (FGF2 [4]): ≤ 4 fold
B2: X-Ava/F2 (bispecific antibody, human IgG1, kappa)
light 1: DIQMTQSPSSLSASVGDRVTITCKASQSVSSDVGWYQQKPGKAPKLLIYSGSNRYSGVPSRFSGSGSGTDFTLTISSLQPEDFATYYCQQDYYSPWTFGQGTKVEIKRTVAAPSVFIFPPSDEQLKSGTASVVCLLNNFYPREAKVQWKVDNALQSGNSQESVTEQDSKDSTYSLSSTLTLSKADYEKHKVYACEVTHQGLSSPVTKSFNRGEC
heavy 1: not shown
light 2: DIQMTQSPSSLSASVGDRVTITCSASQDISNYLNWYQQKPGKAPKVLIYFTSSLHSGVPSRFSGSGSGTDFTLTISSLQPEDFATYYCQQYSTVPWTFGQGTKVEIKSSASTKGPSVFPLAPSSKSTSGGTAALGCLVKDYFPEPVTVSWNSGALTSGVHTFPAVLQSSGLYSLSSVVTVPSSSLGTQTYICNVNHKPSNTKVDKRVEPKSC
heavy 2: not shown
notes: also called bispecific antibody X-Ava/F2; X-Ava/F2 mAb

binding result (Flag-FGF2): no binding (tested: 1 µg/ml)
B3: Avastin® (bevacizumab) (antibody, V domains shown)
VH: EVQLVESGGGLVQPGGSLRLSCAASGYTFTNYGMNWVRQAPGKGLEWVGWINTYTGEPTYAADFKRRFTFSLDTSKSTAYLQMNSLRAEDTAVYYCAKYPHYYGSSHWYFDVWGQGTLVTVSS
VL: DIQMTQSPSSLSASVGDRVTITCSASQDISNYLNWYQQKPGKAPKVLIYFTSSLHSGVPSRFSGSGSGTDFTLTISSLQPEDFATYYCQQYSTVPWTFGQGTKVEIKR
notes: Humanized anti-VEGF mAb, bivalent; also called Fab-12; F(ab)-12
